Reference: patent US20140037624A1

Tests used:
[1] = target: human FGFR4 at the cell surface (stably transfected HEK293 and L6 cells; endogenous on human liver cancer cell lines) (human) (UniProt P22455); test: cell-based or functional assay
[2] = target: T1, human FGFR4-Fc chimeric protein (human) (UniProt P22455); test: solid phase binding assay, LD1 on immobilized hFGFR4-Fc, OD 450 nm
T1 sequence: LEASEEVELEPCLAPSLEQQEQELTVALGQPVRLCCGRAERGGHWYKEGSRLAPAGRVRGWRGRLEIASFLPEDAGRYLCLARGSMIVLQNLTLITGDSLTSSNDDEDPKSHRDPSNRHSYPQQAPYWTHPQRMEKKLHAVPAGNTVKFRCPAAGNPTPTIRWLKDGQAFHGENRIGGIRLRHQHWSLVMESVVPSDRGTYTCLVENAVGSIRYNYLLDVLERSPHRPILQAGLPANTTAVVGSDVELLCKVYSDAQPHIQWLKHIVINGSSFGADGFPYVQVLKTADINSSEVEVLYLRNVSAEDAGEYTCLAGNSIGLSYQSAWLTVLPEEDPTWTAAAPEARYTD

[3] = target: T2, mouse FGFR4-Fc chimeric protein (mouse) (UniProt Q03142); test: solid phase binding assay, LD1 on immobilized mFGFR4-Fc, OD 450 nm
T2 sequence (looked up): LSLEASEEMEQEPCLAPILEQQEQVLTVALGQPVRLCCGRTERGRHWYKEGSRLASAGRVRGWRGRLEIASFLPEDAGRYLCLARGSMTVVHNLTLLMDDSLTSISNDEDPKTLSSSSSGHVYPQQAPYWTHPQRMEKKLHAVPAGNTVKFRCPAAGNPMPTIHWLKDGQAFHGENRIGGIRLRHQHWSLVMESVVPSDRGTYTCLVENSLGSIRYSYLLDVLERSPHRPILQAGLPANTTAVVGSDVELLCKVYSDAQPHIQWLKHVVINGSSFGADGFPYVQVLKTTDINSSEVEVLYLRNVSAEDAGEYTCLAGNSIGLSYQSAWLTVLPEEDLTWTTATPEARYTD

[4] = target: human FGFR4 at the cell surface (stably transfected HEK293 and L6 cells; endogenous on human liver cancer cell lines) (human) (UniProt P22455); test: flow cytometry on HEK293 cells stably transfected with hFGFR4, RFU

B1: chimeric LD1 (murine LD1 variable domains with human kappa and human IgG1 constant domains) (antibody, V domains shown)
VH: EVQLQQPGAVLVRPGTSVKLSCKASGYTFTNHWMNWVKQRPGQGLEWIGMIHPSDSETTLDQKFKDKATLTVDKSSSTAYMQLNRPTSEDSAVYYCTRGDISLFDYWGQGTTVTVSS
VL: DIQMTQTTSSLSASLGDRVTITCRTSQDISNFLNWYQQKPDGTFKILISYTSRLHSGVPSRFSGSGSGTDYSLTISTLEQEDFATYFCQQGNALPYTFGGGTKLEIE
With B1 the CYP7α1 expression in HEP3B cells with added FGF19 [1] was 67%, the CYP7α1 expression in HEP3B cells without added FGF19 [1] was 2 fold and the CYP7α1 expression in HUH7 cells in the absence of FGF19 [1] was 3.5 fold. It also gave a CYP7α1 expression in HUH7 cells in the presence of FGF19 [1] of 2.9 fold, a decrease of basal c-Fos expression in JHH5, JHH7 and HUH7 cell lines [1] of 50% and a decrease of basal c-Fos expression in the PLC/PRF/5 cell line [1] of 75%. It also gave a maximum inhibition of colony formation, HUH7 cells [1] of 50%, a maximum inhibition of colony formation, JHH5 cells [1] of 26% and a maximum inhibition of colony formation, PLC/PRF/5 cells [1] of 82%. For the same binder, the EC50 (read off the curve) [2] was 0.04 µg/mL, the EC50 (read off the curve) [3] was 0.04 µg/mL and the EC50 (read off the curve) [4] was 0.5 µg/mL.
